Assay [1] addresses CD3 heterodimer (Acro Biosystems) (UniProt P07766 23-126). Briefly: not stated in the sentence (SPR on a CD3 heterodimer chip is described in Example 7).
Assay [2] deals with T1, HLA-A*02:01/MAGE-A4 complex (human, UniProt P04439 25-299 at identity 0.94); P61769 21-119).
T1 construct: Coated on ELISA plates and on a streptavidin SPR chip; a biotin tag is not described; also called HLA-A2/MAGE-A4 complex; pMHC-MAGE-A4
Briefly: not stated in the sentence (SPR is described in Example 7).

Sequence of CD3 heterodimer (Acro Biosystems) (P07766 23-126, one chain of several): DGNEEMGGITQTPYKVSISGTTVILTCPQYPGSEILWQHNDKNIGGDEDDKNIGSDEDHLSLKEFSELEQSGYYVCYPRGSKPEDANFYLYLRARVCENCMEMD

B1: M1048 (bispecific antibody)
chain 1: EVQLVESGGGLVQPGGSLRLSCAASGFTFSTYAMNWVRQAPGKGLEWVGRIRSKYNNYATYYADSVKGRFTISRDDSKNTLYLQMNSLRAEDTAVYYCVRHGNFGDSYVSWFAYWGQGTLVTVSSASTKGPSVFPLAPSSKSTSGGTAALGCLVKDYFPEPVTVSWNSGALTSGVHTFPAVLQSSGLYSLSSVVTVPSSSLGTQTYICNVNHKPSNTKVDKRVEPKSCGGGGSSYELTQPPSVSVSPGQTASITCTADTLSRSYASWYQQKPGQSPVLVIYRDTSRPSGIPERFSGSNSGNTATLTISGTQAMDEADYYCATRPSSGSNFQLFGGGTKLTVLGGGGGGSGGGGSGGGGSGGGGSESQVLESGGGSVQPGGSLRLSCTVSGFSLSNYAMSWVRQAPGKGLEYIGIVSSGGTTYYASWAKGRFTISKDTSKNTVYLQMNSLRAEDTASYYCAKDLYYGPTTYSAFNLWGQGTSVTVSS
chain 2: QAVVTQEPSLTVSPGGTVTLTCGSSTGAVTTSNYANWVQQKPGKSPRGLIGGTNKRAPGVPARFSGSLLGGKAALTISGAQPEDEADYYCALWYSNHWVFGGGTKLTVLGQPKAAPSVTLFPPSSEELQANKATLVCLISDFYPGAVTVAWKADSSPVKAGVETTTPSKQSNNKYAASSYLSLTPEQWKSHRSYSCQVTHEGSTVEKTVAPTECSGGGGSSYELTQPPSVSVSPGQTASITCTADTLSRSYASWYQQKPGQSPVLVIYRDTSRPSGIPERFSGSNSGNTATLTISGTQAMDEADYYCATRPSSGSNFQLFGGGTKLTVLGGGGGGSGGGGSGGGGSGGGGSESQVLESGGGSVQPGGSLRLSCTVSGFSLSNYAMSWVRQAPGKGLEYIGIVSSGGTTYYASWAKGRFTISKDTSKNTVYLQMNSLRAEDTASYYCAKDLYYGPTTYSAFNLWGQGTSVTVSS
Broadly, the Kd is the free concentration of one partner at which half of the binding sites on the other are occupied at equilibrium, for simple one-to-one binding. Higher therefore signals lower affinity. Take B1: the Kd in assay [1] came out at 10 nM; in assay [2], 0.25 nM.

The record behind these values is patent US20250144141A1 (CDR LIFE, published 2025).
